Source: paper PMC10245933
Like-named read-outs stand apart in the source and are kept apart here.

Assays:
[1] = target: NOPLight (human (NOPR part)); assay: other fluorescence titration
[2] = target: NOPLight (human (NOPR part)); assay: other fluorescence titration; remark: listed apart in the source
[3] = target: NOPLight (human (NOPR part)); assay: other fluorescence titration; remark: listed apart in the source
[4] = target: NOPLight (human (NOPR part)); assay: sensor fluorescence kinetics
[5] = target: NOPLight (human (NOPR part)); assay: sensor fluorescence in brain slices

Substance “Nociceptin/orphanin-FQ peptide (from UniProt Q13519 130-146)” has an EC50 [1] of 28.6 nM, a ΔF/F0 upon N/OFQ [1] of 388% and an EC50 [2] of 42.8 nM. For the same substance, the ΔF/F0 upon N/OFQ [3] was 378% and the τON (time constant of signal activation) [4] was 595 ms.
“endogenous N/OFQ released from PNOC neurons (peptide)” showed a F/F0 upon CNO-evoked release [5] of 1.6%.
